These results are taken from IntAct's records for PubMed 16628218.

Sequences and labels used below:
B1: Beta-chimaerin (Homo sapiens), P52757 (parent)
chain: MAASSNSSLSGSSVSSDAEEYQPPIWKSYLYQLQQEAPRPKRIICPREVENRPKYYGREFHGIISREQADELLGGVEGAYILRESQRQPGCYTLALRFGNQTLNYRLFHDGKHFVGEKRFESIHDLVTDGLITLYIETKAAEYISKMTTNPIYEHIGYATLLREKVSRRLSRSKNEPRKTNVTHEEHTAVEKISSLVRRAALTHNDNHFNYEKTHNFKVHTFRGPHWCEYCANFMWGLIAQGVRCSDCGLNVHKQCSKHVPNDCQPDLKRIKKVYCCDLTTLVKAHNTQRPMVVDICIREIEARGLKSEGLYRVSGFTEHIEDVKMAFDRDGEKADISANVYPDINIITGALKLYFRDLPIPVITYDTYSKFIDAAKISNADERLEAVHEVLMLLPPAHYETLRYLMIHLKKVTMNEKDNFMNAENLGIVFGPTLMRPPEDSTLTTLHDMRYQKLIVQILIENEDVLF

The variants in this experiment derive from B1. The conditions noted are these: with rac1_human RAC1, P63000.
Take C264A: the “effect of a mutation on the interaction” value is “disrupting interaction”.
Next, Q32A: “increasing interaction”.
